Data published in the supplement of paper PMC10567573.
± gives the standard deviation.

Experiment: protein stability index of a GFP-peptide fusion (GPS, HEK-293T) (PSI 1-6); higher = more stable
Conditions: c terminus: a fixed tail appended
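Note: 24-mer peptide tiles fused after GFP, lentivirally expressed, FACS-sorted into six equal bins by GFP/DsRed ratio, decoded by Illumina sequencing, PSI is the read-weighted mean bin number.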

Sequence	protein stability index (treatment: DMSO)	protein stability index (treatment: MLN4924 1 uM, 8 h)
INRTFFFDVHPPLGKMLIGLAGYL [POMT2]	3.07 ± 0.57	2.6 ± 0.59
VEDLVDSLKLALLFYILTFVGAIF [RTN2]	2.8 ± 0.35	2.48 ± 0.55
GDWLLTANGSEIHKHVHFSSSFTS [SLC22A15]	2.59 ± 0.25	2.49 ± 0.36
MAMTAGTTTTFPMSNHTRERVTVA [STK38L]	3.2 ± 0.36	3.28 ± 0.36
AELEQHLEQEQEFQVNKLMKKIKK [CCDC6]	4.61 ± 0.26	5.13 ± 0.38
KNHSTVTVEEAKAEKETELSLQKE [TRIM29]	5.57 ± 0.24	5.58 ± 0.23
LRREKPSEEMVKMVLSRPCHPDDQ [INTS3]	4.61 ± 0.12	4.69 ± 0.15
MAALNSQTAVQFQQYAAQQYPGNY [ACBD3]	3.09 ± 0.38	3.16 ± 0.1
RSQMQGPRTRARLGANEVLLVVGG [KLHL12]	2.39 ± 0.39	2.62 ± 0.37
DEALAIAALELLPRELFPPLFMAA [PRAME]	2.78 ± 0.21	2.61 ± 0.55
QALGTHRPVNKLAELQCEVAALRE [RASAL3]	3.81 ± 0.38	3.75 ± 0.41
ELERCRQQAGLLVTGEKEEPSRSA [PPEF2]	4.95 ± 0.27	5.11 ± 0.86
FCASTRLPPTPLLLFPEEEATNGR [AUP1]	3.03 ± 0.59	3.79 ± 0.31
NTNLHTHQRTHTGEKPFTCHECGK [ZNF75A]	4.51 ± 0.14	4.54 ± 0.18
QKVTCFYQPAPYFAAEARYPIYVI [TENT5D]	2.89 ± 0.4	2.54 ± 0.49
APTMLHNSSGDFSQAHSTLKLANH [TRAF3IP2]	4.02 ± 0.19	4.18 ± 0.34
IPQAGGWGPWGPWGDCSRTCGGGV [ADAMTS4]	2.68 ± 0.15	2.47 ± 0.22
ASGKLRKKKKKQKNKKSSTGEASE [TCF25]	4.9 ± 0.23	
TALALEPDAIRSRSNTLRERSQVR [PCDHGC5]	4.64 ± 0.14	4.69 ± 0.18
INYNGIFSLKQEETLDYGKNYNYG [NEUROD6]	2.49 ± 0.22	2.53 ± 0.22
RAVQGPEETVTQDCLQLIADSETP [TNFSF13B]	5.38 ± 0.2	5.38 ± 0.15
AVYFAEAEEAESHFSSIPDAFWWA [KCNA1]	2.27 ± 0.4	2.53 ± 0.42
YMYYFQYLSKTYCVDATRETNRLG [KMT5A]	2.67 ± 0.47	2.81 ± 0.66

Sequence	protein stability index (treatment: DMSO)	protein stability index (treatment: MLN4924 1 uM, 8 h)
KHHNLEGLRKRIATLFFHYIKTPL [IQUB]	3.05 ± 0.27	2.66 ± 0.59
ISKNSEKKMESEEDSNWEKSPDNE [GOLPH3L]	5.57 ± 0.21	5.58 ± 0.1
LHIPMYFFLAILSCSEICYTFIIV [OR10K2]	3.65 ± 0.48	3.18 ± 0.38
SQAIDLLYWRDIKQTGIVFGSFLL [RTN1]	3.03 ± 0.81	3.01 ± 0.47
ALDNESWGFVHPRLLSVPELCHHV [RETREG3]	2.65 ± 0.42	2.46 ± 0.23
SSETPIEGKNMSFVNDLTVTQDGR [APMAP]	4.96 ± 0.34	4.87 ± 0.25
GEEDFSLSATIGSILRELDTSMDG [SERTAD3]	3.75 ± 0.2	3.93 ± 0.44
DEALERCQILELLNAELEEKMMQE [CCDC89]	5.17 ± 0.41	5.34 ± 0.22
KSVRLARELESREAELRRRDTFYK [CHCHD6]	4.23 ± 0.26	4.36 ± 0.29
HECGTKYPVEWAKFCCECGIRRMI [ZC2HC1A]	2.48 ± 0.3	2.71 ± 0.46
KGGYKEFFPQHPNFCEPQDYRPMN [CDC25B]	3.52 ± 0.18	3.37 ± 0.2
VAEETPDGAPALCPSPEALSPEPP [PRKX]	5.48 ± 0.21	5.41 ± 0.31
KTHSSPALSQGHVTGSKTTKDATG [PSD2]	5.37 ± 0.06	5.46 ± 0.17
AAHLKLTSIEEGYERSFIHKIKHK [IQUB]	3.18 ± 0.24	3.2 ± 0.2
RSLLRLRATRAGAAEEPGVRGLLA [C2CD2L]	3.17 ± 0.43	3.44 ± 0.18
LCQVAQEALASAGASCCGQPLASH [VENTX]	3.38 ± 0.27	3.42 ± 0.15
RRTRGPVERAAAAAAAAAGGDAGH [C6orf223]	4.91 ± 0.31	5.07 ± 0.17
PDGVCLSGGRGPQGDKAIREQGPR [PBXIP1]	5.21 ± 0.14	4.88 ± 0.35
DLAYQLQVAKTKQQIEEQRVQVQV [FLOT1]	3.4 ± 0.19	3.73 ± 0.22
LELIEPLIKFQVGLKKLNLHEEEH [VDR]	2.73 ± 0.21	2.9 ± 0.42
QSLTQRLHALKLRSPDASPSRAPP [GNAS]	4.06 ± 0.17	4.14 ± 0.22
GHKEEEDGEGAGPGEQGGGKLVLS [ESRRA]	5.3 ± 0.27	5.42 ± 0.4
